Measurements taken from paper PMC3547832, “Secondary Metabolism and Development Is Mediated by LlmF Control of VeA Subcellular Localization in Aspergillus nidulans” (PLoS Genetics, 2013).

T1: His6-VeA-S-tag (recombinant) (Aspergillus nidulans, UniProt C8VTV4 1-573)
T1 construct: VeA, Aspergillus nidulans; E. coli codon-optimized version obtained from Reinhard Fischer, EcoRI-XhoI fragment in pRSF-1b; source: E. coli BL21 (λDE3), purified (Ni-NTA); not shown: His6, N-terminal, kept; S-tag, C-terminal, kept
T1 sequence (looked up): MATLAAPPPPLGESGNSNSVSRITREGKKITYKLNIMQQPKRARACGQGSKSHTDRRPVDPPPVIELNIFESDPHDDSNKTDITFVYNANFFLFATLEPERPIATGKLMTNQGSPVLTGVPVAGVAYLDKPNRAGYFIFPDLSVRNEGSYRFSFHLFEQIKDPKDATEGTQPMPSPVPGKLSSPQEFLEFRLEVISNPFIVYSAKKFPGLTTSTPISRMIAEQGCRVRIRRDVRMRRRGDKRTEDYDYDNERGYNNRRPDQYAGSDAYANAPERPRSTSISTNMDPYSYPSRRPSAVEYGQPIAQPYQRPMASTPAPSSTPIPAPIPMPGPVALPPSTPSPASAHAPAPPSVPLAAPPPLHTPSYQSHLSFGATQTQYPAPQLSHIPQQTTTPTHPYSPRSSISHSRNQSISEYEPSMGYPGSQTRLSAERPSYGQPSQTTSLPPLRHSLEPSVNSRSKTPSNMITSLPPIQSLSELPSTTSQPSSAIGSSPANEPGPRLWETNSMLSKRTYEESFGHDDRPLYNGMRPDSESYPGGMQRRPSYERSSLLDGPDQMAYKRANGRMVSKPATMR


Legend:
LaeA = LaeA (Aspergillus nidulans, UniProt C8VQG9); conditions: labelled compound; room temperature, UV on ice 30 min; GST-LaeA
[1] = target: T1, His6-VeA-S-tag (recombinant); assay: pull-down; 10 µg purified GST tagged protein, glutathione sepharose and purified His6-VeA-S-tag, 3 hours at 4°C in PBS buffer with 1 mM DTT, pH 7.3; anti-S-tag immunoblot; conditions: both partners purified

| Molecule | UV crosslinking of 3H-SAM, SDS-PAGE and tritium phosphor screen (LaeA) | binding result [1] |
| --- | --- | --- |
| C[S+](CC[C@H](N)C(=O)O)C[C@H]1O[C@@H](n2cnc3c(N)ncnc32)[C@H](O)[C@@H]1O (stereo partly drawn) [S-adenosyl methionine] | these results indicate that both LaeA and LlmF have the ability to bind SAM | – |
| GST-VelB (recombinant) (natural protein, Aspergillus nidulans, UniProt C8VTS4 1-369, looked up, VelB, Aspergillus nidulans; GST fusion in pGEX; source: E. coli BL21 (λDE3), purified (glutathione sepharose 6B)) MYAVEDRAHSGHHPPPLSMDRIPPPSTMYPSSAGPSAMVSPAGQPEPESLSTVHDGRIWSLQVVQQPIRARMCGFGDKDRRPITPPPCIRLIVKDAQTQKEVDINSLDSSFYVVMADLWNADGTHEVNLVKHSATSPSISTAMSSSYPPPPHPTSSDYPASYQTNPYGQPVGQPVGQPVGYAGVGNYYGGSTQLQYQNAYPNPQAQYYQPMYGGMAQPQMPAAQPVTPGPGGMFTRNLIGCLSASAYRLYDTEDKIGVWFVLQDLSVRTEGIFRLKFSFVNVGKSVSDLPQSDIAEVINKGTAPILASTFSEPFQVFSAKKFPGVIESTPLSKVFANQGIKIPIRKDGVKGQGSRGRHSDEDDGLDNEY | – | binds |
| GST-LaeA (recombinant) (natural protein, Aspergillus nidulans, UniProt C8VQG9 1-374, looked up, LaeA, Aspergillus nidulans, locus AN0807; GST fusion in pGEX; source: E. coli BL21 (λDE3), purified (glutathione sepharose 6B)) MFEMGPVGTRLPAMTSPAHNHYSYHSPTSSDRGRSRQNSDAMDIQSITEREPATRYAVAGGPAPWNRNGSPSMSPMYSNNSERNQFHEENGRTYHGFRRGMYFLPCDEQEQDRLDIFHKLFTVARVSESLIYAPHPTNGRFLDLGCGTGIWAIEVANKYPDAFVAGVDLAPIQPPNHPKNCEFYAPFDFEAPWAMGEDSWDLIHLQMGCGSVMGWPNLYRRIFAHLRPGAWFEQVEIDFEPRCDDRSLDGTALRHWYDCLKQATAETMRPIAHSSRDTIKDLQDAGFTEIDHQIVGLPLNPWHQDEHERKVARWYNLAVSESIENLSLAPFSRVYRWPLERIQQLAADVKSEAFNKEIHAYNILHIYQARKPLR | – | binds |
